# What was measured:
# CD28 (human) [1] = biological target: CD28 (human) (UniProt P10747); test: flow cytometry, Jurkat cells (CD28)
# human CTLA-4 (human) [2] = biological target: human CTLA-4 (human) (UniProt P16410); test: flow cytometry, CHO cells expressing CTLA4
# Target sequence in this assay (P16410 36-223): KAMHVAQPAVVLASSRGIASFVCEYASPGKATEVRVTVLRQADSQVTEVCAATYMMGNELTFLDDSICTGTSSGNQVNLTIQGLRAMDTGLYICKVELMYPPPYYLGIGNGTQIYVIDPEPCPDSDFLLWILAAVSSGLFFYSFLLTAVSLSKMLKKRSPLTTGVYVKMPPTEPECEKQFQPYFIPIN
# PD-L1 (human) [3] = biological target: PD-L1 (human) (UniProt Q9NZQ7); test: flow cytometry, CHO cells expressing PD-L1
# Target sequence in this assay (Q9NZQ7 19-290): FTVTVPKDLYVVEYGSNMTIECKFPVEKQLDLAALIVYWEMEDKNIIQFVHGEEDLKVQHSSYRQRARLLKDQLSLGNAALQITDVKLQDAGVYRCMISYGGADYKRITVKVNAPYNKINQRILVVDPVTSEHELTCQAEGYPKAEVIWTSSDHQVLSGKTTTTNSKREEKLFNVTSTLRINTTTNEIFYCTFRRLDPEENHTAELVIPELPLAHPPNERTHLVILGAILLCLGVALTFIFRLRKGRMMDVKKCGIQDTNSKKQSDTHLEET
# PD-L1 (human) [4] = biological target: PD-L1 (human) (UniProt Q9NZQ7); test: flow cytometry, CHO cells expressing huPD-L1
# Target sequence in this assay (Q9NZQ7 19-290): as above
# human CTLA-4 (human) [5] = biological target: human CTLA-4 (human) (UniProt P16410); test: flow cytometry, CHO cells expressing huCTLA-4
# Target sequence in this assay (P16410 36-223): as the sequence (P16410 36-223) above
# human CTLA-4 (human) [6] = biological target: human CTLA-4 (human) (UniProt P16410); test: flow cytometry, CHO cells stably expressing CTLA4
# PD-L1 (human) [7] = biological target: PD-L1 (human) (UniProt Q9NZQ7); test: flow cytometry, CHO cells stably expressing PD-L1
# CD28 (human) [8] = biological target: CD28 (human) (UniProt P10747)
Substance,MFI at 33.3 nM (CD28 (human) [1]),MFI at 33.3 nM (human CTLA-4 (human) [2]),MFI at 33.3 nM (PD-L1 (human) [3]),MFI at 33.3 nM (PD-L1 (human) [7]),further results
CD80 H18Y/E35D/V68M/A71G/R94Q/E95V IgV-Fc (Fc fusion),16 MFI,18300 MFI,15000 MFI,–,–
variant CD80 IgV-Fc V68M/K89N (Fc fusion),–,–,–,–,MFI at 33.3 nM (PD-L1 (human) [4]): 538 MFI; MFI at 33.3 nM (human CTLA-4 (human) [5]): 2330 MFI
variant CD80 IgV-Fc N48K/V68M/K89N (Fc fusion),–,–,–,–,MFI at 33.3 nM (PD-L1 (human) [4]): 11500 MFI; MFI at 33.3 nM (human CTLA-4 (human) [5]): 19100 MFI
CD80 H18Y/E35D/M47L/Y53F/V68M/A71G IgV-Fc (Fc fusion),15.7 MFI,146 MFI,5100 MFI,–,Fold change to WT CD80 (CD28 (human) [1]): 0.5 fold; Fold change to WT CD80 (PD-L1 (human) [3]): 99.1 fold
variant CD80 IgV-Fc (inert) H18R/A26P/E35D/D46N/M47V/V68M/A71G/D90P (Fc fusion),–,–,–,29300 MFI,MFI at 33.3 nM (human CTLA-4 (human) [6]): 17300 MFI
CD80 H18Y/E35D/M47L/Y53F/V68M/A71G/K93R/E95V IgV-Fc (Fc fusion),334 MFI,18400 MFI,23400 MFI,–,Fold change to WT CD80 (human CTLA-4 (human) [2]): 10.5 fold
WT IgG1 Fc Control,–,–,–,–,"IL-2 release, primary T cells + K562/OKT3 (No PD-L1), 100 nM (CD28 (human) [8]): 6260"
CD80 H18Y/E35D/M47I/V68M/Y87N IgV-Fc (Fc fusion),4040 MFI,18600 MFI,15000 MFI,–,–
CD80 Q33R/E35D/M38I/M47L/V68M IgV-Fc (Fc fusion),15 MFI,107 MFI,16500 MFI,–,Fold change to WT CD80 (CD28 (human) [1]): 0.5 fold; Fold change to WT CD80 (PD-L1 (human) [3]): 320 fold
CD80 T13R/Q27L/Q33L/E35D/T41S/M47V/N48K/V68M/L85M IgV-Fc (Fc fusion),14.6 MFI,109 MFI,3270 MFI,–,Fold change to WT CD80 (CD28 (human) [1]): 0.5 fold; Fold change to WT CD80 (PD-L1 (human) [3]): 63.5 fold
variant CD80 IgV-Fc (inert) H18V/A26P/E35D/M47V/V68L/A71G (Fc fusion),–,–,–,55400 MFI,MFI at 33.3 nM (human CTLA-4 (human) [6]): 13700 MFI
variant CD80 IgV-Fc (inert) H18Y/A26N/E35D/M47F/V68M/A71G/D90G (Fc fusion),82.2 MFI,–,–,26500 MFI,–
variant CD80 IgV-Fc (inert) H18V/A26G/E35D/M47V/V68M/A71G/D90G (Fc fusion),8190 MFI,–,–,66200 MFI,MFI at 33.3 nM (human CTLA-4 (human) [6]): 25400 MFI
Fc control (Example 24),–,–,–,–,Fold change to WT CD80 (CD28 (human) [1]): 0.2 fold; MFI at 11.1 nM (CD28 (human) [1]): 26 MFI; Fold change to WT CD80 (human CTLA-4 (human) [6]): 0 fold; MFI at 11.1 nM (human CTLA-4 (human) [6]): 106 MFI; Fold change to WT CD80 (PD-L1 (human) [7]): 1.8 fold; MFI at 11.1 nM (PD-L1 (human) [7]): 158 MFI
CD80 Q27L/Q33L/E35D/T41S/M47V/N48K/V68M/L85M IgV-Fc (Fc fusion),15 MFI,178 MFI,16500 MFI,–,Fold change to WT CD80 (CD28 (human) [1]): 0.5 fold; Fold change to WT CD80 (PD-L1 (human) [3]): 320 fold
CD80 (E35D/D46E/M47V/V68M/D90G/K93E) ECD-Fc (Fc fusion),–,–,–,–,EC50 (human CTLA-4 (human) [6]): 10.5 nM; MFI at 66.7 nM (human CTLA-4 (human) [6]): 24600; MFI at 66.7 nM (PD-L1 (human) [7]): 287
CD80 IgV-Fc E24D/Q27R/E35D/T41S/M47V/L85Q (Fc fusion),66 MFI,–,–,2860 MFI,MFI at 33.3 nM (human CTLA-4 (human) [6]): 13900 MFI
variant CD80 IgV-Fc E35D/D46V (Fc fusion),–,–,–,–,MFI at 33.3 nM (PD-L1 (human) [4]): 3970 MFI; MFI at 33.3 nM (human CTLA-4 (human) [5]): 50100 MFI
"wild-type CD80 ECD-Fc (inert), as in Example 12 (Fc fusion)",57.8 MFI,–,–,161 MFI,–
"Wildtype CD80 ECD-Fc (effector Fc, Example 31) (Fc fusion)",–,–,–,–,MFI at 66.7 nM (CD28 (human) [1]): 120; EC50 (human CTLA-4 (human) [6]): 4 nM; MFI at 66.7 nM (human CTLA-4 (human) [6]): 25300; MFI at 66.7 nM (PD-L1 (human) [7]): 104
CD80 E35D/M47V/V68M/L85M IgV-Fc (Fc fusion),201 MFI,16000 MFI,9180 MFI,–,–
variant CD80 IgV-Fc (inert) H18L/E35D/M47V/V68M/A71G/D90G (Fc fusion),6350 MFI,–,–,64800 MFI,MFI at 33.3 nM (human CTLA-4 (human) [6]): 20300 MFI
CD80 IgV-Fc E35D/M47I/T62S/L85Q/E88D (Fc fusion),–,–,–,8420 MFI,MFI at 33.3 nM (human CTLA-4 (human) [6]): 8910 MFI
CD80 IgV-Fc H18Y/E35D/M47I/V68M/A71G/R94L (Fc fusion),1900 MFI,–,–,14500 MFI,–
WT CD80 ECD-Fc (R&D Systems) (Fc fusion),–,–,–,–,EC50 (CD28 (human) [1]): 164 nM; MFI at 11.1 nM (CD28 (human) [1]): 139 MFI; EC50 (PD-L1 (human) [7]): 31.2 nM; MFI at 11.1 nM (PD-L1 (human) [7]): 86 MFI
variant CD80 IgV-Fc D46V/V68M/L85Q (Fc fusion),–,–,–,–,MFI at 33.3 nM (PD-L1 (human) [4]): 4170 MFI; MFI at 33.3 nM (human CTLA-4 (human) [5]): 7570 MFI
"CD80 E35D/M47V/N48K/V68M/K89N IgV-Fc, GS(G4S)5 linker (Fc fusion)",–,–,–,22700 MFI,–
CD80 T13R/Q33R/E35D/M38I/M47L/V68M/L85M/R94Q IgV-Fc (Fc fusion),15.2 MFI,19100 MFI,20400 MFI,–,–
"CD80 E35D/M47V/N48K/V68M/K89N IgV-Fc, GS(G4S)3 linker (Fc fusion)",2110 MFI,–,–,24200 MFI,–
variant CD80 IgV-Fc (inert) H18V/A26N/E35D/M47V/V68M/A71G (Fc fusion),–,–,–,68200 MFI,MFI at 33.3 nM (human CTLA-4 (human) [6]): 22400 MFI

# Source: patent publication US20220177587A1, “METHODS AND USES OF VARIANT CD80 FUSION PROTEINS AND RELATED CONSTRUCTS” (Alpine Immune Sciences, Inc., priority 2018, published 2022)
